We go through six molecules from US20260132197A1 (NANJING LEGEND BIOTECH, published 2026).

Experiment [1] addresses T1, wild type human CD47 (Acro Biosystems, cat. no. CD7-H5227) (human, UniProt Q08722 19-139).
T1 construct: Bought protein used as SPR analyte; also called Human CD47 wt; wild-type CD47
Put plainly: SPR, IgG captured, CD47 in flow; exp 1.

The target of experiment [2] is T2, Human CD47-C33G (human, UniProt Q08722 19-135).
T2 construct: also called CD47 mutein with C33G mutation
Description: SPR, IgG captured, CD47 in flow; exp 1. (In general: Surface plasmon resonance follows binding to a sensor surface in real time, without labels.)

Experiment [3] deals with T1, wild type human CD47 (Acro Biosystems, …). Description: SPR, IgG captured, CD47 in flow; exp 3.
Experiment [4] has as its target T2, Human CD47-C33G. Description: SPR, IgG captured, CD47 in flow; exp 3.
Experiment [5] has as its target T1, wild type human CD47 (Acro Biosystems, …). Put plainly: SPR, IgG captured, CD47 in flow; exp 4.
Experiment [6] has as its target T2, Human CD47-C33G. Put plainly: SPR, IgG captured, CD47 in flow; exp 4.
Experiment [7] has as its target T1, wild type human CD47 (Acro Biosystems, …). Put plainly: SPR, IgG captured, CD47 in flow; exp 1. This is another data set of the same source.
For experiment [8], the target named is T2, Human CD47-C33G. Description: SPR, IgG captured, CD47 in flow; exp 1. This is another data set of the same source.
Experiment [9] deals with T1, wild type human CD47 (Acro Biosystems, …). Description: SPR, IgG captured, CD47 in flow; exp 4. This is another data set of the same source.
Experiment [10] addresses T2, Human CD47-C33G. Put plainly: SPR, IgG captured, CD47 in flow; exp 4. The source holds these as a separate data set.
Experiment [11] has as its target T1, wild type human CD47 (Acro Biosystems, …). Description: SPR, IgG captured, CD47 in flow; exp 3. The source holds these as a separate data set.
Experiment [12] has as its target T2, Human CD47-C33G. Description: SPR, IgG captured, CD47 in flow; exp 3. This is another data set of the same source.
Experiment [13] deals with T1, wild type human CD47 (Acro Biosystems, …). Put plainly: SPR, IgG captured, CD47 in flow; exp 2.
Experiment [14] has as its target T2, Human CD47-C33G. Description: SPR, IgG captured, CD47 in flow; exp 2.
The target in experiment [15] is T1, wild type human CD47 (Acro Biosystems, …). Put plainly: SPR, IgG captured, CD47 in flow; exp 2. This is another data set of the same source.
The target of experiment [16] is T2, Human CD47-C33G. Put plainly: SPR, IgG captured, CD47 in flow; exp 2. The source holds these as a separate data set.
Experiment [17] addresses T3, human CD47 on cells (SHP-77 tumor cells, human red blood cells, CCRF-CEM cells, human CD47 CHO-K1 stable cell … (human, UniProt Q08722 19-323)).
T3 construct: whole, on cells; also called RBC
Description: flow cytometry on human RBCs.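 Also: antibody binding measured by flow cytometry as geometric mean fluorescence intensity over a range of antibody concentrations, with EC50 and maximum taken from a sigmoidal dose-response fit.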

The target of experiment [18] is T3, human CD47 on cells (SHP-77 tumor …). Description: cell-based or functional assay.
Experiment [19] has the same target. Description: flow cytometry on human CD47 CHO-K1 cells; plateau not reached, not accurate.
The target is the same in experiment [20]. Put plainly: flow cytometry on SHP-77 cells. Background: Flow cytometry measures light scatter and fluorescence of single cells or particles in a stream.
Experiment [21] deals with T4, cynomolgus CD47 on CHO-K1 stable cell line (cynomolgus, UniProt A0A5F8AK49 19-323 (rhesus entry)).
T4 construct: whole, on cells; also called cynomolgus CD47/CHO-K1
Put plainly: flow cytometry on cynomolgus CD47 CHO-K1 cells; plateau not reached, not accurate.

In experiment [22] the target is T4, cynomolgus CD47 on CHO-K1 stable cell …. Description: flow cytometry on cynomolgus CD47 CHO-K1 cells.
In experiment [23] the target is T3, human CD47 on cells (SHP-77 tumor …). Put plainly: flow cytometry on human CD47 CHO-K1 cells.

Residue numbers refer to the chain shown, from its start. In names and notes the source's numbering stands.

B1: chimeric antibody 108C10A6 (antibody, V domains shown)
VH: QMQLQQSGPQLVRPGASVKISCKTSGYSFTHHWIHWMKQRPGQGLEWIGMIDPSDSETRLSQKFKDKATLTVDASSSTAYMQLNSPTSEDSALYFCARLGRYYFDYWGQGTTLTVSS
VL: NIVMTQSPRSMSMSVGERVTLSCKASENVGTYISWYQQKPDQSPKLLIYGASNRYTGVPDRFTGSGSGTDFTLTISTVQAEDLADYHCGESYGHLYTFGGGTKLEIK
notes: Chimeric antibody with mouse variable domains; captured through human Fc; also called VH / VL
Take B1: the Kd (in general, the free concentration of one partner at which half of the binding sites on the other are occupied at equilibrium, for simple one-to-one binding) in experiment [1] was determined as 0.19 nM; in the experiment with Human CD47-C33G [2], 1 nM; in [3], 0.2 nM; with Human CD47-C33G [4], 0.95 nM; in experiment [5], 0.17 nM; with Human CD47-C33G [6], 0.67 nM. Besides, the Kd in experiment [7] worked out at 0.2 nM; with Human CD47-C33G [8], 0.92 nM; in experiment [9] it was 0.17 nM; with Human CD47-C33G [10], 0.67 nM; in experiment [11], 0.2 nM; in the experiment with Human CD47-C33G [12], 0.95 nM. In addition, the Kd is 0.21 nM in experiment [13], 1.3 nM with Human CD47-C33G [14], 0.19 nM in experiment [15] and 1 nM with Human CD47-C33G [16]. Further, the koff (as a rule, a measure of how fast the partners let go of each other) was determined as 0.00032 s⁻¹ in [1]; 0.00073 s⁻¹ with Human CD47-C33G [2]; 0.00032 s⁻¹ in experiment [3]; 0.00063 s⁻¹ in the experiment with Human CD47-C33G [4]; 0.0003 s⁻¹ in experiment [5]; 0.00061 s⁻¹ with Human CD47-C33G [6]. The koff in [7] came out at 0.00032 s⁻¹; with Human CD47-C33G [8], 0.00068 s⁻¹; in experiment [9] it was 0.0003 s⁻¹; in the experiment with Human CD47-C33G [10], 0.00061 s⁻¹; in [11], 0.00032 s⁻¹; in the experiment with Human CD47-C33G [12], 0.00063 s⁻¹. The koff was 0.00034 s⁻¹ in [13], 0.00074 s⁻¹ in the experiment with Human CD47-C33G [14], 0.00032 s⁻¹ in experiment [15] and 0.00073 s⁻¹ with Human CD47-C33G [16]. Further, the kon – broadly, a measure of how fast the partners come together – in experiment [1] turned out to be 1.6e+06 M⁻¹ s⁻¹; with Human CD47-C33G [2] it was 720000 M⁻¹ s⁻¹; in experiment [3], 1.6e+06 M⁻¹ s⁻¹; in the experiment with Human CD47-C33G [4] it was 660000 M⁻¹ s⁻¹; in experiment [5] it was 1.8e+06 M⁻¹ s⁻¹; with Human CD47-C33G [6] it was 920000 M⁻¹ s⁻¹. The kon came out at 1.5e+06 M⁻¹ s⁻¹ in experiment [7]; 740000 M⁻¹ s⁻¹ with Human CD47-C33G [8]; 1.8e+06 M⁻¹ s⁻¹ in [9]; 920000 M⁻¹ s⁻¹ in the experiment with Human CD47-C33G [10]; 1.6e+06 M⁻¹ s⁻¹ in experiment [11]; 660000 M⁻¹ s⁻¹ in the experiment with Human CD47-C33G [12]. The kon in [13] came out at 1.6e+06 M⁻¹ s⁻¹; with Human CD47-C33G [14], 590000 M⁻¹ s⁻¹; in experiment [15], 1.6e+06 M⁻¹ s⁻¹; with Human CD47-C33G [16], 720000 M⁻¹ s⁻¹.

B2: 108VH10.Mk / 108VL10.Me (antibody, V domains shown)
VH: EVQLVESGGGLVQPGGSLRLSCAASGFTFSHHWIHWVRQAPGKGLEWVAMIDASDSETRLSQKVKDRFTISADTSKNTAYLQMNSLRAEDTAVYYCSRLGRYYFDYWGQGTLVTVSS
VL: DIQMTQSPSSLSASVGDRVTITCRASQSISSYLNWYQQKPGKAPKLLIYGASSRYSGVPSRFSGSRSGTDFTLTISSLQPEDFATYYCGESYGHLYTFGQGTKVEIK
notes: 4D5-framework series; also called VH10.Mk VL10.Me
Consider B2, for which, in experiment [17], the EC50 (usually the concentration that produces a half-maximal response) came out at 3.9 nM and the “Fitted Maximal MFI” value worked out at 21700 MFI. In experiment [18], the “CCRF-CEM phagocytosis EC50” value is 0.29 nM and the “CCRF-CEM phagocytosis, Phagocytosis (%)” value is 57.6%. The same molecule returned a concentration for a half-maximal effect (EC50) in experiment [19] of 5.4 nM. In experiment [11], the dissociation constant Kd came out at 9 nM, the koff was 0.0086 s⁻¹ and the kon was determined as 950000 M⁻¹ s⁻¹. Besides, in the experiment with Human CD47-C33G [12], the Kd is 87 nM, the koff was determined as 0.019 s⁻¹ and the kon was found to be 210000 M⁻¹ s⁻¹. In experiment [20], the concentration giving a half-maximal response (EC50) came out at 5.3 nM and the “Fitted Maximal MFI” value worked out at 30000 MFI. Further, the EC50 in experiment [21] came to 6.4 nM.

B3: Hu5F9 (antibody, V domains shown)
VH: QVQLVQSGAEVKKPGASVKVSCKASGYTFTNYNMHWVRQAPGQRLEWMGTIYPGNDDTSYNQKFKDRVTITADTSASTAYMELSSLRSEDTAVYYCARGGYRAMDYWGQGTLVTVSS
VL: DIVMTQSPLSLPVTPGEPASISCRSSQSIVYSNGNTYLGWYLQKPGQSPQLLIYKVSNRFSGVPDRFSGSGSGTDFTLKISRVEAEDVGVYYCFQGSHVPYTFGQGTKLEIK
In the case of B3, in [22], the EC50 came to 0.6 nM.

B4: 108VH5.M6 / 108VL1.M5 (antibody, human IgG4 S228P, kappa, V domains shown)
VH: EVQLVQSGAEVKKPGASVKVSCKASGYTFTHHYMHWVRQAPGQGLEWMGMIDASDSETRLSQKFKDRVTMTRDTSTSTVYMELSSLRSEDTAVYYCARLGRYYFDYWGQGTLVTVSS
VL: EIVLTQSPATLSLSPGERATLSCRASQSVSSYLAWYQQKPGQAPRLLIYGASNRATGIPARFSGSGSGTDFTLTISSLEPEDFAVYYCGESYGHLYTFGGGTKVEIKR
notes: Full-length IgG4 (S228P), kappa; also called VH5.M6 VL1.M5
For the molecule B4, the EC50 stood at 11.1 nM in experiment [17], 20 nM in experiment [19], 25.1 nM in experiment [20] and 22.5 nM in experiment [21]. Besides, the “Fitted Maximal MFI” value was 9460 MFI in experiment [17] and 6250 MFI in experiment [20]. Besides, the values for the dissociation constant (Kd) (in experiment [7]; in the experiment with Human CD47-C33G [8]) were 8 nM and 800 nM, respectively. Further, the koff in experiment [7] is 0.0039 s⁻¹; with Human CD47-C33G [8], 0.097 s⁻¹. The results for the kon (in experiment [7]; with Human CD47-C33G [8]) were 490000 M⁻¹ s⁻¹ and 120000 M⁻¹ s⁻¹, respectively.

B5: 108VH5.M23 / 108VL1.M5 (antibody, human IgG4 S228P, kappa, V domains shown)
VH: B4 VH with Y33W, S56K, L60Y, S61A, K65Q, D66G
VL: B4 VL
notes: Full-length IgG4 (S228P), kappa; also called VH5.M23 VL1.M5
For B5, in experiment [17], a half-maximal effect (EC50) was put at 5.8 nM and the “Fitted Maximal MFI” value was 38800 MFI. In experiment [22], this molecule registered an EC50 of 3.2 nM. In [18], the “CCRF-CEM phagocytosis EC50” value is 0.33 nM and the “CCRF-CEM phagocytosis, Phagocytosis (%)” value stood at 64%. Moreover, in experiment [5], the Kd is 6.4 nM, the koff is 0.0028 s⁻¹ and the kon worked out at 440000 M⁻¹ s⁻¹. Also, in the experiment with Human CD47-C33G [6], the Kd amounted to 33 nM, the off-rate (koff) was 0.0058 s⁻¹ and the kon is 170000 M⁻¹ s⁻¹. Besides, a half-maximal response in experiment [23] (EC50) required 2.7 nM. In experiment [20], the EC50 is 8.1 nM and the “Fitted Maximal MFI” value came out at 42100 MFI.

B6: 108VH5.M27 / 108VL1.M5 (antibody, human IgG4 S228P, kappa, V domains shown)
VH: B4 VH with Y33W, S56Y, L60Y, S61A, K65Q, D66G
VL: B4 VL
notes: Full-length IgG4 (S228P), kappa; also called VH5.M27 VL1.M5
For B6, in experiment [17], the EC50 turned out to be 4.7 nM and the “Fitted Maximal MFI” value amounted to 26900 MFI. For the same molecule, in [22], the EC50 is 3.4 nM. Also, in [18], the “CCRF-CEM phagocytosis EC50” value worked out at 0.28 nM and the “CCRF-CEM phagocytosis, Phagocytosis (%)” value was determined as 64.3%. In experiment [5], this molecule showed a Kd of 7.4 nM, a koff of 0.0036 s⁻¹ and a kon of 490000 M⁻¹ s⁻¹. For the same molecule, in the experiment with Human CD47-C33G [6], the Kd came to 39 nM, the off-rate (koff) is 0.0085 s⁻¹ and the kon is 220000 M⁻¹ s⁻¹. Besides, the EC50 in [23] came out at 2.6 nM. Besides, in experiment [20], the response was half-maximal at 9 nM (EC50) and the “Fitted Maximal MFI” value worked out at 36500 MFI.
